Legend:
HeLa Kyoto [1] = assay: solubility in G1/S (NP-40 vs SDS abundance) (log2 ratio); higher = more soluble; details: cell cycle stage: G1/S
HeLa Kyoto [2] = assay: thermal stability score vs G1/S (z-score of summed log2 fold changes over temperatures); higher = more thermally stable than in G1/S
HeLa Kyoto [3] = assay: melting temperature (median over replicates), in situ; higher = more thermally stable
HeLa Kyoto [4] = assay: solubility change mitosis vs G1/S (difference of NP-40 vs SDS log2 ratios) (log2 ratio difference); higher = more soluble in mitosis
[5] = cell cycle stage: early G1 (4.5 h after nocodazole release)
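Throughout, for melting temperature (median over replicates), in situ: HeLa Kyoto cells synchronized by double thymidine or nocodazole block, proteins quantified by TMT10plex mass spectrometry, three independent biological replicates.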
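Throughout, for solubility change mitosis vs G1/S (difference of NP-40 vs SDS log2 ratios): synchronized HeLa Kyoto cells (double thymidine block for G1/S, nocodazole release for mitosis), protein amounts in NP-40 versus SDS lysates quantified by mass spectrometry, three biological replicates.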
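Throughout, for solubility in G1/S (NP-40 vs SDS abundance): HeLa Kyoto cells arrested at G1/S by double thymidine block, proteins quantified by TMT10plex mass spectrometry in mild NP-40 versus SDS extracts, three biological replicates.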
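Throughout, for thermal stability score vs G1/S (z-score of summed log2 fold changes over temperatures): synchronized HeLa Kyoto cells, proteins quantified by TMT10plex mass spectrometry, three biological replicates, mitosis taken 0.5 h after nocodazole release, G1/S directly after double thymidine block.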

“MMAAEAGSEEGGPVTAGAGGGGAAAGSSAYPAVCRVKIPAALPVAAAPYPGLVETGVAGTLGGGAALGSEFLGAGSVAGALGGAGLTGGGTAAGVAGAAAGVAGAAVAGPSGDMALTKLPTSLLAETLGPGGGFPPLPPPPYLPPLGAGLGTVDEGDSLDGPEYEEEEVAIPLTAPPTNQWYHGKLDRTIAEERLRQAGKSGSYLIRESDRRPGSFVLSFLSQMNVVNHFRIIAMCGDYYIGGRRFSSLSDLIGYYSHVSCLLKGEKLLYPVAPPEPVEDRRRVRAILPYTKVPDTDEISFLKGDMFIVHNELEDGWMWVTNLRTDEQGLIVEDLVEEVGREEDPHEGKIWFHGKISKQEAYNLLMTVGQVCSFLVRPSDNTPGDYSLYFRTNENIQRFKICPTPNNQFMMGGRYYNSIGDIIDHYRKEQIVEGYYLKEPVPMQDQEQVLNDTVDGKEIYNTIRRKTKDAFYKNIVKKGYLLKKGKGKRWKNLYFILEGSDAQLIYFESEKRATKPKGLIDLSVCSVYVVHDSLFGRPNCFQIVVQHFSEEHYIFYFAGETPEQAEDWMKGLQAFCNLRKSSPGTSNKRLRQVSSLVLHIEEAHKLPVKHFTNPYCNIYLNSVQVAKTHAREGQNPVWSEEFVFDDLPPDINRFEITLSNKTKKSKDPDILFMRCQLSRLQKGHATDEWFLLSSHIPLKGIEPGSLRVRARYSMEKIMPEEEYSEFKELILQKELHVVYALSHVCGQDRTLLASILLRIFLHEKLESLLLCTLNDREISMEDEATTLFRATTLASTLMEQYMKATATQFVHHALKDSILKIMESKQSCELSPSKLEKNEDVNTNLTHLLNILSELVEKIFMASEILPPTLRYIYGCLQKSVQHKWPTNTTMRTRVVSGFVFLRLICPAILNPRMFNIISDSPSPIAARTLILVAKSVQNLANLVEFGAKEPYMEGVNPFIKSNKHRMIMFLDELGNVPELPDTTEHSRTDLSRDLAALHEICVAHSDELRTLSNERGAQQHVLKKLLAITELLQQKQNQYTKTNDVR [RASA1]” was tested, and the “solubility in G1/S (log2)” value (HeLa Kyoto [1]) was -0.0958, the thermal stability score (HeLa Kyoto [2]; [5]) was 0.554 and the thermal stability score (HeLa Kyoto [2]; cell cycle stage: mitosis) was 0.915. For the same substance, the melting temperature (HeLa Kyoto [3]; cell cycle stage: G1/S) was 49.8 °C, the melting temperature (HeLa Kyoto [3]; cell cycle stage: mitosis) was 50.1 °C and the “solubility change mitosis (log2)” value (HeLa Kyoto [4]) was -0.135.

With “MKSYTPYFILLWSAVGIAKAAKIIIVPPIMFESHMYIFKTLASALHERGHHTVFLLSEGRDIAPSNHYSLQRYPGIFNSTTSDAFLQSKMRNIFSGRLTAIELFDILDHYTKNCDLMVGNHALIQGLKKEKFDLLLVDPNDMCGFVIAHLLGVKYAVFSTGLWYPAEVGAPAPLAYVPEFNSLLTDRMNLLQRMKNTGVYLISRLGVSFLVLPKYERIMQKYNLLPEKSMYDLVHGSSLWMLCTDVALEFPRPTLPNVVYVGGILTKPASPLPEDLQRWVNGANEHGFVLVSFGAGVKYLSEDIANKLAGALGRLPQKVIWRFSGPKPKNLGNNTKLIEWLPQNDLLGHSKIKAFLSHGGLNSIFETIYHGVPVVGIPLFGDHYDTMTRVQAKGMGILLEWKTVTEKELYEALVKVINNPSYRQRAQKLSEIHKDQPGHPVNRTIYWIDYIIRHNGAHHLRAAVHQISFCQYFLLDIAFVLLLGAALLYFLLSWVTKFIYRKIKSLWSRNKHSTVNGHYHNGILNGKYKRNGHIKHEKKVK [UGT8]” the “solubility in G1/S (log2)” value (HeLa Kyoto [1]) was -0.021, the thermal stability score (HeLa Kyoto [2]; [5]) was 0.353 and the thermal stability score (HeLa Kyoto [2]; cell cycle stage: mitosis) was -0.0434. For the same substance, the melting temperature (HeLa Kyoto [3]; cell cycle stage: mitosis) was 53.8 °C and the “solubility change mitosis (log2)” value (HeLa Kyoto [4]) was -0.0716.

With “MVFPAKRFCLVPSMEGVRWAFSCGTWLPSRAEWLLAVRSIQPEEKERIGQFVFARDAKAAMAGRLMIRKLVAEKLNIPWNHIRLQRTAKGKPVLAKDSSNPYPNFNFNISHQGDYAVLAAEPELQVGIDIMKTSFPGRGSIPEFFHIMKRKFTNKEWETIRSFKDEWTQLDMFYRNWALKESFIKAIGVGLGFELQRLEFDLSPLNLDIGQVYKETRLFLDGEEEKEWAFEESKIDEHHFVAVALRKPDGSRHQDVPSQDDSKPTQRQFTILNFNDLMSSAVPMTPEDPSFWDCFCFTEEIPIRNGTKS [AASDHPPT]” the “solubility in G1/S (log2)” value (HeLa Kyoto [1]) was 0.0817, the thermal stability score (HeLa Kyoto [2]; [5]) was 0.145 and the thermal stability score (HeLa Kyoto [2]; cell cycle stage: mitosis) was -0.453. The melting temperature (HeLa Kyoto [3]; cell cycle stage: G1/S) was 52.3 °C, the melting temperature (HeLa Kyoto [3]; cell cycle stage: mitosis) was 52.4 °C and the “solubility change mitosis (log2)” value (HeLa Kyoto [4]) was -0.124.

For “MANIAVQRIKREFKEVLKSEETSKNQIKVDLVDENFTELRGEIAGPPDTPYEGGRYQLEIKIPETYPFNPPKVRFITKIWHPNISSVTGAICLDILKDQWAAAMTLRTVLLSLQALLAAAEPDDPQDAVVANQYKQNPEMFKQTARLWAHVYAGAPVSSPEYTKKIENLCAMGFDRNAVIVALSSKSWDVETATELLLSN [UBE2K]”, the “solubility in G1/S (log2)” value (HeLa Kyoto [1]) was 0.332, the thermal stability score (HeLa Kyoto [2]; [5]) was -2.17 and the thermal stability score (HeLa Kyoto [2]; cell cycle stage: mitosis) was 0.646. The melting temperature (HeLa Kyoto [3]; cell cycle stage: G1/S) was 53.2 °C, the melting temperature (HeLa Kyoto [3]; cell cycle stage: mitosis) was 53.9 °C and the “solubility change mitosis (log2)” value (HeLa Kyoto [4]) was -0.0147.

UTRN was tested, and the “solubility in G1/S (log2)” value (HeLa Kyoto [1]) was 0.0106, the thermal stability score (HeLa Kyoto [2]; [5]) was 0.795 and the thermal stability score (HeLa Kyoto [2]; cell cycle stage: mitosis) was 1.84. For the same substance, the melting temperature (HeLa Kyoto [3]; cell cycle stage: G1/S) was 49 °C, the melting temperature (HeLa Kyoto [3]; cell cycle stage: mitosis) was 48.5 °C and the “solubility change mitosis (log2)” value (HeLa Kyoto [4]) was -0.109.

“MSLADELLADLEEAAEEEEGGSYGEEEEEPAIEDVQEETQLDLSGDSVKTIAKLWDSKMFAEIMMKIEEYISKQAKASEVMGPVEAAPEYRVIVDANNLTVEIENELNIIHKFIRDKYSKRFPELESLVPNALDYIRTVKELGNSLDKCKNNENLQQILTNATIMVVSVTASTTQGQQLSEEELERLEEACDMALELNASKHRIYEYVESRMSFIAPNLSIIIGASTAAKIMGVAGGLTNLSKMPACNIMLLGAQRKTLSGFSSTSVLPHTGYIYHSDIVQSLPPDLRRKAARLVAAKCTLAARVDSFHESTEGKVGYELKDEIERKFDKWQEPPPVKQVKPLPAPLDGQRKKRGGRRYRKMKERLGLTEIRKQANRMSFGEIEEDAYQEDLGFSLGHLGKSGSGRVRQTQVNEATKARISKTLQRTLQKQSVVYGGKSTIRDRSSGTASSVAFTPLQGLEIVNPQAAEKKVAEANQKYFSSMAEFLKVKGEKSGLMST [PRPF31]” was tested, and the “solubility in G1/S (log2)” value (HeLa Kyoto [1]) was -0.0726, the thermal stability score (HeLa Kyoto [2]; [5]) was 2.25 and the thermal stability score (HeLa Kyoto [2]; cell cycle stage: mitosis) was 7.81. The melting temperature (HeLa Kyoto [3]; cell cycle stage: G1/S) was 46.8 °C, the melting temperature (HeLa Kyoto [3]; cell cycle stage: mitosis) was 48.3 °C and the “solubility change mitosis (log2)” value (HeLa Kyoto [4]) was 0.246.

Reference: the supplement of paper PMC5998384
